Measured values taken from patent US20220289816A1, “IMMUNOTHERAPY WITH B*07 RESTRICTED PEPTIDES AND COMBINATION OF PEPTIDES AGAINST CANCERS AND RELATED METHODS” (Immatics Biotechnologies GmbH, priority 2018, published 2022).

Molecular target: HLA-B*07 (Homo sapiens, UniProt P01889)
Test: MHC binding assay (UV-ligand exchange, ELISA of stabilized MHC complexes)
Details: peptide exchange yield on HLA-B*07, UV-ligand exchange
Summary of the method: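 Binding is reported as exchange yield: an ELISA with HRP-conjugated anti-β2m (A450, TMB) quantified how much test peptide stabilized MHC after UV cleavage of a photolabile placeholder peptide. Exchange monomers were diluted 100-fold and captured on streptavidin-coated plates for 1 h at 37 °C.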

Row | Substance | Peptide exchange
1 | 275 (IPAPQGAVL; listed as Homo sapiens) [compound 275] | +++ (>50 = +++)
2 | 276 (RPVWDVRSA; listed as Homo sapiens) [compound 276] | ++++ (>75% = ++++)
3 | 277 (MPPLLIVAF; listed as Homo sapiens) [compound 277] | ++ (>20% = ++)
4 | 278 (LIAARGSLVL; listed as Homo sapiens) [compound 278] | +++ (>50 = +++)
5 | 279 (APADEPRTVL; listed as Homo sapiens) [compound 279] | +++ (>50 = +++)
6 | 280 (LPRAFLQSL; listed as Homo sapiens) [compound 280] | ++++ (>75% = ++++)
7 | 281 (NPRSPPATM; listed as Homo sapiens) [compound 281] | ++++ (>75% = ++++)
8 | 282 (AVRLPTPNL; listed as Homo sapiens) [compound 282] | ++++ (>75% = ++++)
9 | 283 (RPQPGWRESL; listed as Homo sapiens) [compound 283] | ++++ (>75% = ++++)
10 | 284 (RPSAPRGPP; listed as Homo sapiens) [compound 284] | ++++ (>75% = ++++)
11 | 285 (RITWKGLLL; listed as Homo sapiens) [compound 285] | +++ (>50 = +++)
12 | 286 (APARPAAAF; listed as Homo sapiens) [compound 286] | ++++ (>75% = ++++)
13 | 287 (SPIPRPLFL; listed as Homo sapiens) [compound 287] | ++++ (>75% = ++++)
14 | 288 (LHAMNSLSAM; listed as Homo sapiens) [compound 288] | +++ (>50 = +++)
15 | 289 (LPYEKVSRL; listed as Homo sapiens) [compound 289] | +++ (>50 = +++)
16 | 290 (RPTHPLRSF; listed as Homo sapiens) [compound 290] | ++++ (>75% = ++++)
17 | 291 (SPSKSLEM; listed as Homo sapiens) [compound 291] | +++ (>50 = +++)
18 | 292 (LPMTHRLQL; listed as Homo sapiens) [compound 292] | +++ (>50 = +++)
19 | 293 (FPYDKPLIM; listed as Homo sapiens) [compound 293] | ++++ (>75% = ++++)
20 | 294 (VPKPAIPSSSVL; listed as Homo sapiens) [compound 294] | ++++ (>75% = ++++)
21 | 295 (HPRWIEPTVM; listed as Homo sapiens) [compound 295] | ++++ (>75% = ++++)
22 | 296 (SPLLMQRTL; listed as Homo sapiens) [compound 296] | ++++ (>75% = ++++)
23 | 298 (RVLLRWISL; listed as Homo sapiens) [compound 298] | +++ (>50 = +++)
24 | 299 (SPFSGGPVSF; listed as Homo sapiens) [compound 299] | ++++ (>75% = ++++)
25 | 300 (HPYSDLADVF; listed as Homo sapiens) [compound 300] | +++ (>50 = +++)
26 | 301 (FPAFLEAM; listed as Homo sapiens) [compound 301] | +++ (>50 = +++)
27 | 302 (IPIDQILNSF; listed as Homo sapiens) [compound 302] | +++ (>50 = +++)

Row | Substance | Peptide exchange
28 | 303 (RPPPPCIAL; listed as Homo sapiens) [compound 303] | ++++ (>75% = ++++)
29 | 304 (SPLIGDFPAF; listed as Homo sapiens) [compound 304] | ++ (>20% = ++)
30 | 305 (AASPVGSAL; listed as Homo sapiens) [compound 305] | +++ (>50 = +++)
31 | 306 (RPFPLALL; listed as Homo sapiens) [compound 306] | +++ (>50 = +++)
32 | 307 (RPHQKGWLSI; listed as Homo sapiens) [compound 307] | +++ (>50 = +++)
33 | 308 (RPDVVRTLL; listed as Homo sapiens) [compound 308] | ++++ (>75% = ++++)
34 | 309 (FAFYGGKSL; listed as Homo sapiens) [compound 309] | +++ (>50 = +++)
35 | 310 (SPGWAQTQL; listed as Homo sapiens) [compound 310] | ++++ (>75% = ++++)
36 | 311 (APRLALDPDAL; listed as Homo sapiens) [compound 311] | ++++ (>75% = ++++)
37 | 312 (SPSLQSSRESL; listed as Homo sapiens) [compound 312] | +++ (>50 = +++)
38 | 313 (VPLSSYVSI; listed as Homo sapiens) [compound 313] | ++++ (>75% = ++++)
39 | 314 (IALMKLAGPL; listed as Homo sapiens) [compound 314] | ++ (>20% = ++)
40 | 315 (APVVFPAL; listed as Homo sapiens) [compound 315] | ++++ (>75% = ++++)
41 | 316 (NPREPEKSL; listed as Homo sapiens) [compound 316] | +++ (>50 = +++)
42 | 317 (MPYNSAHHCVV; listed as Homo sapiens) [compound 317] | ++++ (>75% = ++++)
43 | 318 (TPISNTGVL; listed as Homo sapiens) [compound 318] | ++++ (>75% = ++++)
44 | 319 (RPLDTFRVL; listed as Homo sapiens) [compound 319] | ++++ (>75% = ++++)
45 | 320 (APMHIDRNIL; listed as Homo sapiens) [compound 320] | ++++ (>75% = ++++)
46 | 321 (QPQQPGFFL; listed as Homo sapiens) [compound 321] | +++ (>50 = +++)
47 | 322 (RAVPVGSGL; listed as Homo sapiens) [compound 322] | +++ (>50 = +++)
48 | 323 (TPHGITDIL; listed as Homo sapiens) [compound 323] | ++++ (>75% = ++++)
49 | 324 (LPAPLRISL; listed as Homo sapiens) [compound 324] | ++++ (>75% = ++++)
50 | 325 (SPRSNPVRL; listed as Homo sapiens) [compound 325] | ++++ (>75% = ++++)
51 | 327 (GPRTTQSSVL; listed as Homo sapiens) [compound 327] | ++++ (>75% = ++++)
52 | 328 (LPLHRGDLVI; listed as Homo sapiens) [compound 328] | +++ (>50 = +++)
53 | 329 (QPANFIVLL; listed as Homo sapiens) [compound 329] | +++ (>50 = +++)
54 | 330 (RPFSAIAEL; listed as Homo sapiens) [compound 330] | ++++ (>75% = ++++)

Row | Substance | Peptide exchange
55 | 331 (SPDSAILKL; listed as Homo sapiens) [compound 331] | +++ (>50 = +++)
56 | 332 (SPYAGSTAF; listed as Homo sapiens) [compound 332] | ++++ (>75% = ++++)
57 | 333 (SVLPRALSL; listed as Homo sapiens) [compound 333] | +++ (>50 = +++)
58 | 334 (YPLSLALHF; listed as Homo sapiens) [compound 334] | ++++ (>75% = ++++)
59 | 335 (VPPQNPRPSL; listed as Homo sapiens) [compound 335] | +++ (>50 = +++)
60 | 336 (YPLQGPGLLSV; listed as Homo sapiens) [compound 336] | +++ (>50 = +++)
61 | 337 (IPTSRVITL; listed as Homo sapiens) [compound 337] | ++++ (>75% = ++++)
62 | 338 (MPATPSLKV; listed as Homo sapiens) [compound 338] | +++ (>50 = +++)
63 | 339 (GPQRTTSV; listed as Homo sapiens) [compound 339] | +++ (>50 = +++)
64 | 340 (APEPRAALL; listed as Homo sapiens) [compound 340] | +++ (>50 = +++)
65 | 341 (LPRSPPLKVL; listed as Homo sapiens) [compound 341] | ++++ (>75% = ++++)
66 | 342 (RPRPPKVL; listed as Homo sapiens) [compound 342] | +++ (>50 = +++)
67 | 343 (RPRPPKVLGL; listed as Homo sapiens) [compound 343] | +++ (>50 = +++)
68 | 344 (VPYPSPTCV; listed as Homo sapiens) [compound 344] | ++++ (>75% = ++++)
69 | 345 (SAAPPGASL; listed as Homo sapiens) [compound 345] | +++ (>50 = +++)
70 | 346 (IPMPRITWL; listed as Homo sapiens) [compound 346] | ++++ (>75% = ++++)
71 | 347 (SPLEKINSF; listed as Homo sapiens) [compound 347] | ++++ (>75% = ++++)
72 | 348 (HPAPPVTSA; listed as Homo sapiens) [compound 348] | +++ (>50 = +++)
73 | 349 (QPRDGWPMML; listed as Homo sapiens) [compound 349] | ++++ (>75% = ++++)
74 | 350 (RPKSTLMNF; listed as Homo sapiens) [compound 350] | ++++ (>75% = ++++)
75 | 351 (SPYADIIPSA; listed as Homo sapiens) [compound 351] | +++ (>50 = +++)
76 | 352 (LPAFSKIGGIL; listed as Homo sapiens) [compound 352] | ++++ (>75% = ++++)
77 | 353 (KPRATWTL; listed as Homo sapiens) [compound 353] | +++ (>50 = +++)
78 | 354 (APAKDARASL; listed as Homo sapiens) [compound 354] | ++++ (>75% = ++++)
79 | 355 (APKTSFIAA; listed as Homo sapiens) [compound 355] | ++++ (>75% = ++++)
80 | 356 (RPFLRLPSL; listed as Homo sapiens) [compound 356] | +++ (>50 = +++)
